Data: patent US20120041185A1, “dTDP-BETA-D-FUCOFURANOSE, ITS PREPARATION METHOD AND USE” (TIANJIN BIOCHIP TECHNOLOGY CORPORATION, priority 2007, published 2012)

B1: Fcf2: dTDP-D-Fucp mutase of E. coli O52 converting dTDP-D-Fucp to dTDP-D-Fucf, 377 amino acids, SEQ ID NO:4 (protein)
chain: MNKVLIIGSGFSGATIARLLAEENIKVKIIDDRKHIGGNCYDERDEKTGINVHVYGPHIFHTDNEDVWNFVNKYGTFQPYTTRLKANAKGQIYSLPVNLHTINQYYKTALSPTEARKLIASKGDQTINDPQSFEEQALKFVGEDLYKTFFYGYPKKQWGMEPKEIPASVLKRLPVRFNYDDNYFFHKFQGIPRDGYTPLFQNLLNHPNIEFELGKKVNRATVEELITSEQYGHVFFSGAIDHFYDYEFGMLQYRTLDFEKFYSEDDDYQGCVVMSYCDEDVPYTRVTEHKYFTPWEEHKGSVLYKEFSRSCDKEDIPYYPVRLVSGNSIWNKYEQKAKEETNITFIGRLATYRYLDMDVCIKEAIECAQLYIKNNKE
modifications: E. coli O52
B2: Fcf1: dTDP-6-deoxy-D-xylo-hex-4-ulopyranose reductase of E. coli O52, 316 amino acids, SEQ ID NO:3 (protein)
chain: MDARKNGVLITGGAGFIGKALITEMVERQIPLVSFDISDKPDSLPELSEYFNWYKFSYLESSQRIKELHEIVSRHNIKTVIHLATTMFPHESKKNIDKDCLENVYANVCFFKNLYENGCEKIIFASSGGTVYGKSDTPFSEDDALLPEISYGLSKVMTETYLRFIAKELNGKSISLRISNPYGEGQRIDGKQGVIPIFLNKISNDIPIDIIGSIESKRDYIYISDLVQAFMCSLEYEGHEDIFNIGSGESITLKKLIETIEFKLNKKAVIGFQDPIHTNANGIILDIKRAMAELGWRPTVVLDDGIDKLIKSIRCK
modifications: E. coli O52

How the values were obtained:
[1] = Enzyme activity assay of Fcf2: temperature optima (capillary electrophoresis); type: biochemical, E. coli O52; details: for Transformation rate (%): 3 hours, 2 mM dTDP-D-fucose, 3.9 μM enzyme
Description: 25 μl reactions in 0.5 ml centrifugal tube contain 2 mM dTDP-D-fucose, 50 mM Tris-HCl buffer (pH 7.4) 5 mM divalent ion chloride and 3.9 μM recombinant dTDP-D-Glcfucofuranose mutase protein purified in example 2. The reactions are proceeded at certain temperature for 3 hours. Then add chloroform of equal volume to extract protein. The aqueous phase is detected by Beckman Coulter P/ACE MDQ capillary electrophoresis.

[2] = Enzyme activity assay of Fcf1: temperature optima and kinetic parameters (capillary electrophoresis); type: biochemical, E. coli O52; details: for Transformation rate (%): 2 hours, 2 mM dTDP-D-Glco, 3 mM NADPH, 0.25 μM enzyme
Description: 20 μl reactions in 0.5 ml centrifugal tube contain 2 mM dTDP-D-Glco, 3 mM NADPH, 50 mM Tris-HCl buffer (pH7.4), 5 mM divalent ion chloride and 0.25 μM recombinant dTDP-D-GIcO reductase protein purified in example 2. The reactions are proceeded at certain temperatures for 2 hours. Then add chloroform of equal volume to extract protein. The aqueous phase is detected by Beckman Coulter P/ACE MDQ capillary electrophoresis.
In the condition of the foregoing reaction (37° C., 3 mM MADPH, 50 mM Tris-HCl buffer (pH 7.4), 0.25 μM enzyme, 30 seconds), the concentration of dTDP-GIcO is 0.1-1 mM. Measure the concentration of dTDP-Qui4N.

[3] = 37° C., pH 7.4, 0.25 μM enzyme, 30 seconds, dTDP-GIcO 0.1-1 mM, Michaelis-Menten equation

Row | Molecule | Transformation rate (%) ([1]; 4° C.) | Transformation rate (%) ([1]; 15° C.) | Transformation rate (%) ([1]; 25° C.) | Transformation rate (%) ([1]; 37° C.) | Transformation rate (%) ([1]; 50° C.) | Transformation rate (%) ([1]; 65° C.) | Transformation rate (%) ([1]; 80° C.) | optimum temperature for the enzyme activity ([1]; standard reactions at 4-80° C.) | Transformation rate (%) ([2]; 4° C.) | Transformation rate (%) ([2]; 15° C.) | Transformation rate (%) ([2]; 25° C.) | Transformation rate (%) ([2]; 37° C.) | Km [2, 3] | kcat [2, 3] | Transformation rate (%) ([2]; 50° C.) | Transformation rate (%) ([2]; 65° C.) | Transformation rate (%) ([2]; 80° C.) | optimum temperature for the enzyme activity ([2]; standard reactions at 4-80° C.)
1 | B1 | 1.6% | 9.5% | 9.6% | 9.6% | 4.7% | 0% | 0% | 37 °C | – | – | – | – | – | – | – | – | – | –
2 | B2 | – | – | – | – | – | – | – | – | 47.0% | 100% | 100% | 100% | 540 µM | 15.9 s⁻¹ | 35.5% | 31% | 22% | 15-37 °C
